Experimental data as given in IntAct's records for PubMed 34039996.

B1: Plexin-A4 (Mus musculus), Q80UG2 (parent)
chain: MKAMPWNWTCLLSHLLVVGMGSSTLLPRQPPQLSQKPSFVTFRGEPAEGFNHLVVDERTGHIYLGAVNRIYKLSSDLKVLVTHQTGPDEDNPKCYPPRIVQTCNEPLASTNNVNKMLLIDYKENRLIACGSLYQGICKLLRLEDLFKLGEPFHKKEHYLSGVNESGSVFGVIVSYSNFDDKLFIATAVDGKPEYFPTISSRKLTKNSEADGMFAYVFHDEFVASMIKIPSDTFTVIPDFDIYYVYGFSSGNFVYFLTLQPEMVSPPGSTTKEQVYTSKLVRLCKEDTAFNSYVEVPIGCERNGVEYRLLQAAYLSKAGAVLGRTLGVRPDDDLLFTVFSKGQKRKMKSLDESALCIFILKQINDRIKDRLQSCYRGEGTLDLAWLKVKDIPCSSALLTIDDNFCGLDMNAPLGVSEMVRGIPVFTEDRDRMTSVIAYVYKNHSLAFVGTKSGKLKKIRVDGPKGNALQYETVQVVDSGPVLRDMAFSKDHEQLYIMSERQLTRVPVESCGQYRSCGECLGSGDPHCGWCVLHNTCTRKERCERSREPRRFASEMKQCVRLTVHPNNISVSQYNVLLVLETYNVPELSAGVNCTFEDLSEMDGLVIGNQIQCYSPAAKEVPRIITENGDHHVVQLQLKSKETGMTFASTSFVFYNCSVHNSCLSCVESPYRCHWCKYRHVCTHDPNTCSFQEGRVKLPEDCPQLLRVDKILVPVEVIKPITLKAKNLPQPQSGQRGYECILNIQGIEQRVPALRFNSSSVQCQNTSYSYEGMEINNLPVELTVVWNGHFNIDNPAQNKVYLYKCGAMRESCGLCLKADPDFECGWCQSPGQCTLRQHCPAHESRWLELSGANSKCTNPRITEIIPVTGPREGGTKVTIRGENLGLEFRDIASHVKVAGVECSPLVDGYIPAEQIVCEMGEAKPSQHAGFVEICVAVCRPEFMARSSQLYYFMTLTLADLKPNRGPMSGGTQVTITGTNLNAGSNVVVMFGSQPCLFHRRSPSYIICNTTSSEEVLDMKVTVQVDRARIRQDLVFQYVEDPTIVRIEPEWSIVSGNTPIAVWGTHLDLIQNPQIRAKHGGKEHINICEVLNATEMTCQAPALALGPDHQSDLTERPEEFGFILDNVQSLLILNKTNFTYYPNPVFEAFSPSGILELKPGTPIILKGKNLIPPVAGGNVKLNYTVLVGEKPCTVTVSDVQLLCESPNLIGRHKVMARVGGMEYSPGMVYIAPDSPLSLPAIVSIAVAGGLLIIFIVAVLIAYKRKSRESDLTLKRLQMQMDNLESRVALECKEAFAELQTDIHELTSDLDGAGIPFLDYRTYTMRVLFPGIEDHPVLRDLEVPGYRQERVEKGLKLFAQLINNKVFLLSFIRTLESQRSFSMRDRGNVASLIMTVLQSKLEYATDVLKQLLADLIDKNLESKNHPKLLLRRTESVAEKMLTNWFTFLLYKFLKECAGEPLFSLFCAIKQQMEKGPIDAITGEARYSLSEDKLIRQQIEYKTLVLSCVSPDNVNSPEVPVKILNCDTITQVKEKILDAIFKNVPCSHRPKAADMDLEWRQGSGARMILQDEDITTKIENDWKRLNTVAHYQVPDGSVVALVSKQVTAYNAVNNSTVSRTSASKYENMIRYTGSPDSLRSRTPMITPDLESGVKLWHLVKNHEHGDQKEGDRGSKMVSEIYLTRLLATKGTLQKFVDDLFETIFSTAHRGSALPLAIKYMFDFLDEQADKHGIHDPHVRHTWKSNCLPLRFWVNMIKNPQFVFDIHKNSITDACLSVVAQTFMDSCSTSEHRLGKDSPSNKLLYAKDIPSYKNWVERYYSDIGKMPAISDQDMNAYLAEQSRMHMNEFNTMSALSEIFSYVGKYSEEILGPLDHDDQCGKQKLAYKLEQVITLMSLDS
B2: Neuropilin-1 (Mus musculus), P97333 (parent)
chain: MERGLPLLCATLALALALAGAFRSDKCGGTIKIENPGYLTSPGYPHSYHPSEKCEWLIQAPEPYQRIMINFNPHFDLEDRDCKYDYVEVIDGENEGGRLWGKFCGKIAPSPVVSSGPFLFIKFVSDYETHGAGFSIRYEIFKRGPECSQNYTAPTGVIKSPGFPEKYPNSLECTYIIFAPKMSEIILEFESFDLEQDSNPPGGMFCRYDRLEIWDGFPEVGPHIGRYCGQKTPGRIRSSSGVLSMVFYTDSAIAKEGFSANYSVLQSSISEDFKCMEALGMESGEIHSDQITASSQYGTNWSVERSRLNYPENGWTPGEDSYKEWIQVDLGLLRFVTAVGTQGAISKETKKKYYVKTYRVDISSNGEDWISLKEGNKAIIFQGNTNPTDVVLGVFSKPLITRFVRIKPVSWETGISMRFEVYGCKITDYPCSGMLGMVSGLISDSQITASNQADRNWMPENIRLVTSRTGWALPPSPHPYTNEWLQVDLGDEKIVRGVIIQGGKHRENKVFMRKFKIAYSNNGSDWKTIMDDSKRKAKSFEGNNNYDTPELRTFSPLSTRFIRIYPERATHSGLGLRMELLGCEVEAPTAGPTTPNGNPVDECDDDQANCHSGTGDDFQLTGGTTVLATEKPTIIDSTIQSEFPTYGFNCEFGWGSHKTFCHWEHDSHAQLRWSVLTSKTGPIQDHTGDGNFIYSQADENQKGKVARLVSPVVYSQSSAHCMTFWYHMSGSHVGTLRVKLRYQKPEEYDQLVWMVVGHQGDHWKEGRVLLHKSLKLYQVIFEGEIGKGNLGGIAVDDISINNHISQEDCAKPTDLDKKNTEIKIDETGSTPGYEGEGEGDKNISRKPGNVLKTLDPILITIIAMSALGVLLGAVCGVVLYCACWHNGMSERNLSALENYNFELVDGVKLKKDKLNPQSNYSEA

Variants of: B1
Conditions: with nrp1_mouse Nrp1, P97333

Variant	effect of a mutation on the interaction
K343E	with no effect

Variants of: B2
Conditions: with plxa4_mouse Plxna4, Q80UG2

Variant	effect of a mutation on the interaction
E128R	with no effect
H74A	with no effect
S251E	with no effect
A252E	with no effect
